Patent US20240254255A1 (Regeneron, published 2024)

Columns and labels:
[1] = biological target: T1, human HER2 (ErbB2) expressed on the surface of cell lines and primary cells (human, UniProt P04626 23-1255); assay: cell-based or functional assay
[2] = biological target: T2, hErbB2-MMH (human HER2 ectodomain with C-terminal myc-myc-hexahistidine tag) (human, UniProt P04626 23-652); assay: SPR (MASS-2), ADC captured on anti-human Fc, hErbB2-MMH in solution, 25 C
T2 construct: also called Her2 ECD; Her2 protein
Description: (§1) Equilibrium dissociation constants (KD values) for hErbB2.mmh binding to anti-HER2×HER2 antibodies conjugated with either M830 or M1 were determined using a real-time surface plasmon resonance biosensor assay on a MASS-2 instrument. The MASS-2 sensor surface was derivatized by amine coupling with a monoclonal mouse anti-human Fc antibody (REGN2567) to capture anti-HER2×HER2 ADC and parent unmodified antibodies expressed with human constant regions. […] Human hErbB2 was prepared in-house expressing a C-terminal myc-myc-hexahistidine tag (hErbB2-MMH). […] Association of hErbB2-MMH to each of the captured ADCs and monoclonal antibodies was monitored for 3 minutes. Subsequently, hErbB2-MMH dissociation was monitored for 10 minutes in HBS-EP running buffer. Anti-human Fc surface was regenerated by a brief injection of 20 mM H₃PO₄. All binding kinetic experiments were performed at 25° C.
Kinetic association (kₐ) and dissociation (Kd) rate constants were determined by fitting the real-time sensorgrams to a 1:1 binding model using Scrubber 2.0c curve fitting software. All sensorgrams were double referenced by subtracting buffer injection sensorgram signal from the corresponding analyte sensorgram, thereby removing artifacts caused by dissociation of the antibody from the capture surface. Binding dissociation equilibrium constants (KD) and dissociative half-lives (t½) were calculated from the kinetic rate constants as: […]

[3] = biological target: T1, human HER2 (ErbB2) expressed on the …; assay: cell-based or functional assay; remark: listed apart in the source
[4] = biological target: T2, hErbB2-MMH (human HER2 ectodomain with …); assay: SPR (MASS-2), antibody captured on anti-human Fc, hErbB2-MMH in solution, 25 C
Description: as §1
Kinetic association (kₐ) and dissociation (Kd) rate constants were determined by fitting the real-time sensorgrams to a 1:1 binding model using Scrubber 2.0c curve fitting software. […] Binding dissociation equilibrium constants (KD) and dissociative half-lives (t½) were calculated from the kinetic rate constants as: […]

B1: BsAb2-Tubulysin 1A-LP (Anti HER2 BsAb2-PEG3-N3-Tubulysin 1A-LP) (bispecific antibody, human IgG4 S228P, kappa)
heavy 1: QVQLVESGGGVVQPGRSLRLSCEASGFTFSGYALHWVRQAPGKGLEWVTVISYDGSDKFYADSVKGRFTISRDNSKNTLYLQMNSLRTEDTALYYCAKDWGTYHWNYGHYNYVMDVWGQGTTVTVSSASTKGPSVFPLAPCSRSTSESTAALGCLVKDYFPEPVTVSWNSGALTSGVHTFPAVLQSSGLYSLSSVVTVPSSSLGTKTYTCNVDHKPSNTKVDKRVESKYGPPCPPCPAPEFLGGPSVFLFPPKPKDTLMISRTPEVTCVVVDVSQEDPEVQFNWYVDGVEVHNAKTKPREEQFNSTYRVVSVLTVLHQDWLNGKEYKCKVSNKGLPSSIEKTISKAKGQPREPQVYTLPPSQEEMTKNQVSLTCLVKGFYPSDIAVEWESNGQPENNYKTTPPVLDSDGSFFLYSRLTVDKSRWQEGNVFSCSVMHEALHNRFTQKSLSLSPGK
heavy 2: not shown
light: not shown
modifications: deglycosylated (PNGase F); Q295 carries azido-PEG3-amine clicked to Tubulysin 1A-LP
notes: Site-specific antibody-drug conjugate of BsAb2; also called H4H17087D-Tubulysin 1A-LP
IC50 of cell killing, MDAMB231 cells (Cell Titer Glow, 6 days) [1]: 50 nM
IC50 of cell killing, MDAMB468 cells (Cell Titer Glow, 6 days) [1]: 67 nM
IC50 of cell killing, T47D cells (Cell Titer Glow, 6 days) [1]: 8 nM
IC50 of cell killing, primary breast (mammary epithelial) cells (Cell Titer Glow, 6 days) [1]: 20 nM
IC50 of cell killing, primary lung epithelial cells (Cell Titer Glow, 6 days) [1]: > 67 nM
IC50 of cell killing, primary myocardial cells (Cell Titer Glow, 6 days) [1]: 30 nM
IC50 of cell killing, primary prostate epithelial cells (Cell Titer Glow, 6 days) [1]: > 67 nM
Antigen Bound (RU) [2]: 72.7 RU
Kd [2]: ≤ 0.0431 nM
koff [2]: ≤ 1e-05 s⁻¹
kon [2]: 232000 M⁻¹ s⁻¹
t1/2 [2]: ≥ 1160 min

B2: BsAb2-CAMPT1 (bispecific antibody, human IgG4 S228P, kappa)
heavy 1: QVQLVESGGGVVQPGRSLRLSCEASGFTFSGYALHWVRQAPGKGLEWVTVISYDGSDKFYADSVKGRFTISRDNSKNTLYLQMNSLRTEDTALYYCAKDWGTYHWNYGHYNYVMDVWGQGTTVTVSSASTKGPSVFPLAPCSRSTSESTAALGCLVKDYFPEPVTVSWNSGALTSGVHTFPAVLQSSGLYSLSSVVTVPSSSLGTKTYTCNVDHKPSNTKVDKRVESKYGPPCPPCPAPEFLGGPSVFLFPPKPKDTLMISRTPEVTCVVVDVSQEDPEVQFNWYVDGVEVHNAKTKPREEQFNSTYRVVSVLTVLHQDWLNGKEYKCKVSNKGLPSSIEKTISKAKGQPREPQVYTLPPSQEEMTKNQVSLTCLVKGFYPSDIAVEWESNGQPENNYKTTPPVLDSDGSFFLYSRLTVDKSRWQEGNVFSCSVMHEALHNRFTQKSLSLSPGK
heavy 2: not shown
light: not shown
modifications: Q295 carries a bis azido-alkyl substituted amine (bisSP1) clicked to CAMPT-1-LP
notes: Antibody-drug conjugate of BsAb2; also called BsAb2-Camp1
Antigen Bound (RU) [2]: 77 RU
Kd [2]: ≤ 0.0388 nM
koff [2]: ≤ 1e-05 s⁻¹
kon [2]: 258000 M⁻¹ s⁻¹
t1/2 [2]: 1160 min

B3: BsAb2-MCC-Maytansinoid A (bispecific antibody, human IgG4 S228P, kappa)
heavy 1: QVQLVESGGGVVQPGRSLRLSCEASGFTFSGYALHWVRQAPGKGLEWVTVISYDGSDKFYADSVKGRFTISRDNSKNTLYLQMNSLRTEDTALYYCAKDWGTYHWNYGHYNYVMDVWGQGTTVTVSSASTKGPSVFPLAPCSRSTSESTAALGCLVKDYFPEPVTVSWNSGALTSGVHTFPAVLQSSGLYSLSSVVTVPSSSLGTKTYTCNVDHKPSNTKVDKRVESKYGPPCPPCPAPEFLGGPSVFLFPPKPKDTLMISRTPEVTCVVVDVSQEDPEVQFNWYVDGVEVHNAKTKPREEQFNSTYRVVSVLTVLHQDWLNGKEYKCKVSNKGLPSSIEKTISKAKGQPREPQVYTLPPSQEEMTKNQVSLTCLVKGFYPSDIAVEWESNGQPENNYKTTPPVLDSDGSFFLYSRLTVDKSRWQEGNVFSCSVMHEALHNRFTQKSLSLSPGK
heavy 2: not shown
light: not shown
modifications: SMCC-DM1 (M1) conjugate, attachment residues not stated
notes: Antibody-drug conjugate of BsAb2; also called BsAb2 conjugated with M1 (SMCC-DM1)
Antigen Bound (RU) [2]: 82.8 RU
Kd [2]: 0.0469 nM
koff [2]: 1.02e-05 s⁻¹
kon [2]: 218000 M⁻¹ s⁻¹
t1/2 [2]: 1130 min

B4: BsAb1-MCC-Maytansinoid A (bispecific antibody, human IgG4 S228P, kappa)
heavy 1: EVQLVESGGGLAQPGGSLRLSCAASGFSISDYEIHWVRQVPGKGLEWVSGIGSAGNTYYPGAVKGRFTISRENAKNSLYLQVNSLTVGDTAVYYCARVWSPLYYFGLDVWGQGTTVTVSSASTKGPSVFPLAPCSRSTSESTAALGCLVKDYFPEPVTVSWNSGALTSGVHTFPAVLQSSGLYSLSSVVTVPSSSLGTKTYTCNVDHKPSNTKVDKRVESKYGPPCPPCPAPEFLGGPSVFLFPPKPKDTLMISRTPEVTCVVVDVSQEDPEVQFNWYVDGVEVHNAKTKPREEQFNSTYRVVSVLTVLHQDWLNGKEYKCKVSNKGLPSSIEKTISKAKGQPREPQVYTLPPSQEEMTKNQVSLTCLVKGFYPSDIAVEWESNGQPENNYKTTPPVLDSDGSFFLYSRLTVDKSRWQEGNVFSCSVMHEALHNRFTQKSLSLSPGK
heavy 2: not shown
light: not shown
modifications: SMCC-DM1 (M1) conjugate, attachment residues not stated
notes: Antibody-drug conjugate of BsAb1; also called BsAb1 conjugated with M1 (SMCC-DM1)
Antigen Bound (RU) [2]: 93.6 RU
Kd [2]: 0.512 nM
t1/2 [2]: 32.7 min
IC50 of cell killing, JIMT1 cells (Cell Titer Glow, 6 days) [3]: 7 nM
IC50 of cell killing, MDAMB361 cells (Cell Titer Glow, 6 days) [3]: 0.05 nM
IC50 of cell killing, MDAMB453 cells (Cell Titer Glow, 6 days) [3]: 0.1 nM
IC50 of cell killing, SKBR3 cells (Cell Titer Glow, 6 days) [3]: 0.02 nM
IC50 of cell killing, ZR751 cells (Cell Titer Glow, 6 days) [3]: 6 nM

B5: BsAb1-Tubulysin 1A-LP (Anti HER2 BsAb1-PEG3-N3-Tubulysin 1A-LP) (bispecific antibody, human IgG4 S228P, kappa)
heavy 1: EVQLVESGGGLAQPGGSLRLSCAASGFSISDYEIHWVRQVPGKGLEWVSGIGSAGNTYYPGAVKGRFTISRENAKNSLYLQVNSLTVGDTAVYYCARVWSPLYYFGLDVWGQGTTVTVSSASTKGPSVFPLAPCSRSTSESTAALGCLVKDYFPEPVTVSWNSGALTSGVHTFPAVLQSSGLYSLSSVVTVPSSSLGTKTYTCNVDHKPSNTKVDKRVESKYGPPCPPCPAPEFLGGPSVFLFPPKPKDTLMISRTPEVTCVVVDVSQEDPEVQFNWYVDGVEVHNAKTKPREEQFNSTYRVVSVLTVLHQDWLNGKEYKCKVSNKGLPSSIEKTISKAKGQPREPQVYTLPPSQEEMTKNQVSLTCLVKGFYPSDIAVEWESNGQPENNYKTTPPVLDSDGSFFLYSRLTVDKSRWQEGNVFSCSVMHEALHNRFTQKSLSLSPGK
heavy 2: not shown
light: not shown
modifications: deglycosylated (PNGase F); Q295 carries azido-PEG3-amine clicked to Tubulysin 1A-LP
notes: Site-specific antibody-drug conjugate of BsAb1; also called HER2xHER2-M830
IC50 of cell killing, MDAMB231 cells (Cell Titer Glow, 6 days) [1]: 40 nM
IC50 of cell killing, MDAMB468 cells (Cell Titer Glow, 6 days) [1]: 50 nM
IC50 of cell killing, T47D cells (Cell Titer Glow, 6 days) [1]: 8 nM
IC50 of cell killing, primary breast (mammary epithelial) cells (Cell Titer Glow, 6 days) [1]: 25 nM
IC50 of cell killing, primary lung epithelial cells (Cell Titer Glow, 6 days) [1]: > 67 nM
IC50 of cell killing, primary myocardial cells (Cell Titer Glow, 6 days) [1]: 9 nM
IC50 of cell killing, primary prostate epithelial cells (Cell Titer Glow, 6 days) [1]: 30 nM
Antigen Bound (RU) [2]: 114 RU
t1/2 [2]: 33.5 min
IC50 of cell killing, JIMT1 cells (Cell Titer Glow, 6 days) [3]: 0.07 nM
IC50 of cell killing, MDAMB361 cells (Cell Titer Glow, 6 days) [3]: 0.003 nM
IC50 of cell killing, MDAMB453 cells (Cell Titer Glow, 6 days) [3]: 0.02 nM
IC50 of cell killing, SKBR3 cells (Cell Titer Glow, 6 days) [3]: 0.004 nM
IC50 of cell killing, ZR751 cells (Cell Titer Glow, 6 days) [3]: 0.06 nM

B6: H4H17325D (BsAb1), HER2 x HER2 bispecific antibody (bispecific antibody, human IgG4 S228P, kappa)
heavy 1: EVQLVESGGGLAQPGGSLRLSCAASGFSISDYEIHWVRQVPGKGLEWVSGIGSAGNTYYPGAVKGRFTISRENAKNSLYLQVNSLTVGDTAVYYCARVWSPLYYFGLDVWGQGTTVTVSSASTKGPSVFPLAPCSRSTSESTAALGCLVKDYFPEPVTVSWNSGALTSGVHTFPAVLQSSGLYSLSSVVTVPSSSLGTKTYTCNVDHKPSNTKVDKRVESKYGPPCPPCPAPEFLGGPSVFLFPPKPKDTLMISRTPEVTCVVVDVSQEDPEVQFNWYVDGVEVHNAKTKPREEQFNSTYRVVSVLTVLHQDWLNGKEYKCKVSNKGLPSSIEKTISKAKGQPREPQVYTLPPSQEEMTKNQVSLTCLVKGFYPSDIAVEWESNGQPENNYKTTPPVLDSDGSFFLYSRLTVDKSRWQEGNVFSCSVMHEALHNRFTQKSLSLSPGK
heavy 2: not shown
light: not shown
notes: Human IgG4 bispecific with a common light chain; also called bispecific antibody 1
t1/2 [4]: 29 min

B7: BsAb1-CAMPT1 (Anti-HER2 BsAb1-substituted alkyl amine-(N3)2-CAMPT-1-LP) (bispecific antibody, human IgG4 S228P, kappa)
heavy 1: EVQLVESGGGLAQPGGSLRLSCAASGFSISDYEIHWVRQVPGKGLEWVSGIGSAGNTYYPGAVKGRFTISRENAKNSLYLQVNSLTVGDTAVYYCARVWSPLYYFGLDVWGQGTTVTVSSASTKGPSVFPLAPCSRSTSESTAALGCLVKDYFPEPVTVSWNSGALTSGVHTFPAVLQSSGLYSLSSVVTVPSSSLGTKTYTCNVDHKPSNTKVDKRVESKYGPPCPPCPAPEFLGGPSVFLFPPKPKDTLMISRTPEVTCVVVDVSQEDPEVQFNWYVDGVEVHNAKTKPREEQFNSTYRVVSVLTVLHQDWLNGKEYKCKVSNKGLPSSIEKTISKAKGQPREPQVYTLPPSQEEMTKNQVSLTCLVKGFYPSDIAVEWESNGQPENNYKTTPPVLDSDGSFFLYSRLTVDKSRWQEGNVFSCSVMHEALHNRFTQKSLSLSPGK
heavy 2: not shown
light: not shown
modifications: Q295 carries a bis azido-alkyl substituted amine (bisSP1) clicked to CAMPT-1-LP
notes: Antibody-drug conjugate of BsAb1; also called BsAb1-Camp1
Antigen Bound (RU) [2]: 117 RU
Kd [2]: 0.472 nM
t1/2 [2]: 41 min
